Laboratory results: patent US20130303393A1

Key:
NlpA-ZZ fusion protein [1] = assay: flow cytometry of spheroplasts expressing NlpA-ZZ, labeled with 50 nM FITC-conjugated Human IgG
NlpA-ZZ fusion protein [2] = assay: flow cytometry of NlpA-ZZ spheroplasts labeled with 5 nM FITC-conjugated Human IgG; residual fluorescence at Time 0 min
NlpA-ZZ fusion protein [3] = assay: flow cytometry of NlpA-ZZ spheroplasts labeled with 5 nM FITC-conjugated Human IgG; residual fluorescence at Time 10 min
NlpA-ZZ fusion protein [4] = assay: flow cytometry of NlpA-ZZ spheroplasts labeled with 5 nM FITC-conjugated Human IgG; residual fluorescence at Time 20 min
NlpA-ZZ fusion protein [5] = assay: flow cytometry of NlpA-ZZ spheroplasts labeled with 5 nM FITC-conjugated Human IgG; residual fluorescence at Time 30 min
NlpA-ZZ fusion protein [6] = assay: flow cytometry of NlpA-ZZ spheroplasts labeled with 5 nM FITC-conjugated Human IgG; residual fluorescence at Time 60 min
NlpA-ZZ fusion protein [7] = assay: flow cytometry of NlpA-ZZ spheroplasts labeled with 5 nM FITC-conjugated Human IgG; residual fluorescence at Time 120 min
NlpA-ZZ fusion protein [8] = assay: flow cytometry of NlpA-ZZ spheroplasts labeled with 5 nM FITC-conjugated Human IgG; residual fluorescence at Time 180 min
NlpA-ZZ fusion protein [9] = assay: flow cytometry of NlpA-ZZ spheroplasts labeled with 5 nM FITC-conjugated Human IgG; residual fluorescence at Time 240 min
NlpA-ZZ fusion protein [10] = assay: flow cytometry of NlpA-ZZ spheroplasts labeled with 5 nM FITC-conjugated Human IgG; residual fluorescence at Time 1440 min
NlpA-ZZ fusion protein [11] = assay: flow cytometry of NlpA-ZZ spheroplasts labeled with 5 nM FITC-conjugated Human IgG; residual fluorescence at Time 4320 min

commercial Human IgG antibodies (FITC-conjugated) (antibody)
M (FL1-Height) (NlpA-80R(scFv)): 3
M (FL1-Height) (NlpA-ZZ fusion protein [1]): 2760
M (FL1-Height) (NlpA-ZZ fusion protein [2]): 153
M (FL1-Height) (NlpA-ZZ fusion protein [3]): 150
M (FL1-Height) (NlpA-ZZ fusion protein [4]): 143
M (FL1-Height) (NlpA-ZZ fusion protein [5]): 147
M (FL1-Height) (NlpA-ZZ fusion protein [6]): 136
M (FL1-Height) (NlpA-ZZ fusion protein [7]): 133
M (FL1-Height) (NlpA-ZZ fusion protein [8]): 148
M (FL1-Height) (NlpA-ZZ fusion protein [9]): 142
M (FL1-Height) (NlpA-ZZ fusion protein [10]): 146
M (FL1-Height) (NlpA-ZZ fusion protein [11]): 154
